The results in this text go back to patent US20220135670A1 (TESARO, published 2022).

The target in assay [1] is T1, LAG-3 (axis label "%LAG-3 OCCUPANCY", DONOR 1 to DONOR 4) (human, UniProt P18627).
T1 construct: full-length, on the cell surface; also called LAG-3 on SEB-stimulated human donor PBMCs
T1 sequence (receptor, looked up): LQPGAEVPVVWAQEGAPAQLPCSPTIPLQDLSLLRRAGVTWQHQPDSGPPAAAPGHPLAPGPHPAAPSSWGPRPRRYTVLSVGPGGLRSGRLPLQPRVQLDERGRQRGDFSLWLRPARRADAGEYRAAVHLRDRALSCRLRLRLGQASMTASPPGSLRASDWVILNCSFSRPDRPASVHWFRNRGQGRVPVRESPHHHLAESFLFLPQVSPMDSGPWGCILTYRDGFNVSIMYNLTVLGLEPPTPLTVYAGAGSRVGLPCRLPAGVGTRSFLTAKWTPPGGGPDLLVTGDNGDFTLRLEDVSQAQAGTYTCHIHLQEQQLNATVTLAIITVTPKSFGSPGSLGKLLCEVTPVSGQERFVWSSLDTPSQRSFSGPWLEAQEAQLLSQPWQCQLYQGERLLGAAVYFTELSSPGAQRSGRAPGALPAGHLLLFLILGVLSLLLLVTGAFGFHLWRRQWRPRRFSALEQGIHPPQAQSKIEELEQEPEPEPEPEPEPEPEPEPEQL
In words: receptor occupancy assay on SEB-stimulated human donor PBMCs (4 donors).

Assay [2] deals with DyLight 650 (DyL650)-labeled LAG-3 fusion protein. The experiment in a line: flow cytometry competition: antibody titrated against binding of the DyL650-labeled LAG-3 fusion protein to MHC class II on Daudi cells; readout MFI (Dyl650). (In flow cytometry, cells or beads pass a laser one at a time.)
In assay [3] the target is T2, LAG-3 expressed on Jurkat cells (Homo sapiens (Human), UniProt P18627 23-525).
T2 sequence: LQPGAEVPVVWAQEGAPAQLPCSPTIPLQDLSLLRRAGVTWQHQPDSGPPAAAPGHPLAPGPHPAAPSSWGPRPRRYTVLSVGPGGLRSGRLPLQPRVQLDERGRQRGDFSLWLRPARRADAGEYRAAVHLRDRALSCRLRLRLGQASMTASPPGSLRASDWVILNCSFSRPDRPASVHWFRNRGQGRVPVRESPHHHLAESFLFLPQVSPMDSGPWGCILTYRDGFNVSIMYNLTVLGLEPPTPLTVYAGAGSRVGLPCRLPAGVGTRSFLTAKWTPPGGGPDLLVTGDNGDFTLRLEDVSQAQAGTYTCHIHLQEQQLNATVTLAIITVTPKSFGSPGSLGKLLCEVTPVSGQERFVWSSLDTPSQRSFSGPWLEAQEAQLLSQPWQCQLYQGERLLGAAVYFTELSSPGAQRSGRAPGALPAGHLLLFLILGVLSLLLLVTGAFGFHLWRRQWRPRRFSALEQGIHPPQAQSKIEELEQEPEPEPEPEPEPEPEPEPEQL
In words: cell-based or functional assay.

Assay [4] addresses T3, human LAG-3 expressed on the surface of CHO cells (human, UniProt P18627 23-525).
T3 construct: whole, on cells; also called LAG-3 expressing CHO cells; cell-surface-expressed LAG-3
T3 sequence (looked up): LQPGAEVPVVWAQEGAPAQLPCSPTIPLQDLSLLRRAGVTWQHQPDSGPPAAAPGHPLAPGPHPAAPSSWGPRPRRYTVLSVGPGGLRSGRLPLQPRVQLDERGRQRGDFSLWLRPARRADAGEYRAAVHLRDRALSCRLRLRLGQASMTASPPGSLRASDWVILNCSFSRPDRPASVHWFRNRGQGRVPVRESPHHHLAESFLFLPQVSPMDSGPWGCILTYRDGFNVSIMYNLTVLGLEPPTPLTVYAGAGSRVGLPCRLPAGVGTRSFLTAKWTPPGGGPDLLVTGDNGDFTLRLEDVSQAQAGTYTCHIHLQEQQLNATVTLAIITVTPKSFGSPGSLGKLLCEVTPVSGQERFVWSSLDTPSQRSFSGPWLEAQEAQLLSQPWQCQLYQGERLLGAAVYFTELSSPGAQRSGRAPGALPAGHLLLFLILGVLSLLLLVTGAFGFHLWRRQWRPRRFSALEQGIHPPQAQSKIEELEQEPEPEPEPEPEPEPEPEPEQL
The experiment in a line: binding to LAG-3 expressing CHO cells.

In assay [5] the target is T4, cynomolgus monkey LAG-3 expressed on the surface of CHO cells (cynomolgus monkey).
T4 construct: whole, on cells; also called Cyno LAG-3; LAG-3 expressing CHO cells
The experiment in a line: binding to LAG-3 expressing CHO cells.

Assay [6] deals with T5, recombinant soluble cynomolgus monkey LAG-3 (cynomolgus monkey).
T5 construct: also called Cyno LAG-3; soluble LAG-3
The experiment in a line: SPR, recombinant soluble LAG-3. (In general: SPR reads the build-up and loss of mass on a sensor chip optically.)

Assay [7] concerns the target T6, recombinant soluble human LAG-3 (human, UniProt P18627 23-450, limits assumed).
T6 construct: also called soluble LAG-3
T6 sequence (looked up): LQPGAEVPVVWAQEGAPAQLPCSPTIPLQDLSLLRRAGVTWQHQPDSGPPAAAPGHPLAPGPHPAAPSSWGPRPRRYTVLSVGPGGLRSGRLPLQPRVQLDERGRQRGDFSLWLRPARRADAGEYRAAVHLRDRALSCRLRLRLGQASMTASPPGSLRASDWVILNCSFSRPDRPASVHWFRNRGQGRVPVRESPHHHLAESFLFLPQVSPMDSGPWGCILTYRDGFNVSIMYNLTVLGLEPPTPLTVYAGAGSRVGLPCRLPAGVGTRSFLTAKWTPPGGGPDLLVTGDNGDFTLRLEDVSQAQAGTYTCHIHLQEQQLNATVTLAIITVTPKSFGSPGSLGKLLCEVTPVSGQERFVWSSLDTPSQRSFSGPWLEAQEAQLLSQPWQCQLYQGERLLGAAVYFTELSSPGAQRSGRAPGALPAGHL
In words: SPR, recombinant soluble LAG-3.

B1: anti-LAG-3 antibody agent TSR-033 (antibody, human IgG4 S228P, kappa, V domains shown)
VH: EVQLVQSGAEVKKPGATVKISCKASGFSIKDDYIHWVQQAPGKGLEWMGWIDAMNDDSQYSSKFQGRVTITVDTSTNTAYMKLSSLRSEDTAVYYCTYAFGGYWGQGTTVTVSS
VL: DIVMTQTPLSLSVTPGQPASISCRSSQSLVHSDSNTYLHWYLQKPGQSPQLLIYLVSNRFSGVPDRFSGSGSGTDFTLKISRVEAEDVGVYFCGQSTHVPYAFGGGTKVEIKR
modifications: N-glycosylation at N291 of the heavy chain
notes: also called exemplary anti-LAG-3 antibody agent; exemplary anti-LAG-3 antibody
As usually defined, the EC50 (read off the curve) is the concentration that produces a half-maximal response. The term IC50 denotes the concentration at which inhibition is half-maximal. The term EC50 denotes the concentration that produces a half-maximal response. What is called Kd is the equilibrium constant for the complex coming apart. A word on the koff: it is a measure of how fast the partners let go of each other. As to B1, in assay [1], the “EC50 (read off the curve)” value was about 0.06 µg/mL. In assay [2], the IC50 turned out to be 3.4 nM. Also, the “EC50 (read off the curve); NFAT-luciferase reporter signal (RLU)” value in assay [3] is about 70 nM. Besides, the figures for the EC50 in assay [4] and in assay [5] were 0.8 nM and 2.6 nM, respectively. For the same molecule, the Kd in assay [6] worked out at 2 nM; in assay [7] it was 0.95 nM. Further, the koff in assay [6] is 0.00026 s⁻¹; in assay [7], 0.00013 s⁻¹.
